The source of these data is a protein production outcome set (Wang et al. 2014).

This series can be described thus: label from the status in PepcDB records.
As to “MVINRKIIGSYTQRQIAALLTDEPPSEQPKCNVRVVEMTYTTVGVVGEPARASGVVLVPDGPQCPGPYPVLGWGSATETLRSAEQAKGIISANGDDPLVTRLASQGYVVVSTDYLGLGGSNYPYHPYLHANSEASALIDALRASRTVLQHLNTPLSNKLMLSGFSQGGHTAMATQREIEAHLSNEFSLVASAPISGPYALSQTFLDTWTGRNEVGENNFAIILGTYAIVGMQRTYRNIYSDPSQVFQDPWANQVEALFPGKKDTTDLFLGDDLPAIDQIKEYFQPGFYSDFPKNRKNPFFVDLVRNDLLNWAPRTPTLLCGSDNDTVVPFLKNTNLAIASFKKRGSRQVSVVDIGTGNRKDNSALTHLSSEELCIVKVRNEFLEKKR”, the protein production result was “failed”. Next, “MSESNRQRATGLVQAYYEAFNRGDWDAMLAFLAEDVAHDLNQGPREIGRAAFASFLQRMNDSYREQLRDIVVTANDEGTRVGAEYVVHGVYHTTDEGLPDANGQTYVLPGGAFFDVRDGQITRVTNYYNLQEWIAQVSR”: “not failed”. Next, “EVQKPLHEQLWYHGAIPRAEVAELLVHSGDFLVRESQGKQEYVLSVLWDGLPRHFIIQSLDNLYRLEGEGFPSIPLLIDHLLSTQQPLTKKSGVVLHRAVP”: “not failed”; “MDRGEQGLLRTDPVPEEGEDVAATISATETLSEEEQEELRRELAKVEEEIQTLSQVLAAKEKHLAEIKRKLGINSLQELKQNIAKGWQDVTATSAYKKTSETLSQAGQKASAAFSSVGSVITKKLEDVKNSPTFKSFEEKVENLKSKVGGTKPAGGDFGEVLNSAANASATTTEPLPEKTQESL”: “failed”; “RATPSGMLRINASVQAGRAVAPLVLAFLRRYPEMRVDLVTEGRLLDIVAEGFDMGIRPADLVPRDMIALPLGLPVRHAVVASPDWLVRHPEPRSPADLDPDACLRVRLPNGALLRWPFQKDGVPLPFEASGRLTVDEAAIAR”: “failed”. In the case of “MGLFAKITTASDPRTARIAGILLMLLAMLAFSFADAAGKTVVAIYSVGQLLVLRALAGLLVLSPLIWRQRKAFLQLERPGLQLARTLIAACEVAVFYLATAYLPLADVITFYLASSLFVSVGAALFLGETIDRPRGIAIVVGFVGVLIALQPSTQTMSWPALIAILASVLFAGLLLLTRFLRQTPDMVLASQQFAGTLLLGLVLAPSGWITPSATDLVWFAISGAVSAVGLLCVNRSLRLAPASVVVPYQYTMIIFAAAFGWLLFGDVPSRATVAGVAIIIAAGLYLGWRERSTSRPPVGG”, the protein production entry was “failed”.

Take “MMEKIMEYLQLSDEVVDDGEAPRVEEFLGEGKSFYENFSLRGIRVNRVEPGFISCSFKVPLRLTDRDKNLANGAIANLVDEVGGALVHGEGLPMSVSVDMSIAFLSKAKLGEELEITSRLLGERGGYKGTIVVVRNKMTGEIIAEGRHSMFGRQASKL”: the protein production result is reported as “failed”. With “MLNAKTSFALLMAVCLIATGVTGYLLGGINPELIQAWLKAAGIWAPVTYVAVYVVATILILPSTALNLTGGAIFGPWMGTFWTSVGAIIAAIAAFIFARTVGREIVAQRLAGRWQAIDAEVRQGAVFYMFAIRLMPILPYGLVNFAAGLTSISFKDYLIGTALGTVPGILPFVLLGSSGLKAIRTGEVLPLVGALALIGMLVGGSTWYRRRRSFPTRKKP” the entry was “failed”; with “MPGELLGAHYGHCFGCGEEQSHGLHLAARAGQGVSITAEFTVQPAHQGAPGLAHGGVLATALDETLGSLNWLLRTIAVTGRLETDFVRPVPVGTVLYLEAEVTAVAGRKIYSTATGRIGGPEGPVAVRADALFVEVKVDHFTDNGRQEEIRAAMNDPDQLRRARAFEVNPLEHHHHHH”, “failed”. “AAIILHEIYGINAHIQRAGHEWMTRGFDIYIPALFPHHTPFRYEQQEEAYRHFSANVGFDPAVVTTLLHELRTQYETLIVVGYSVGATLAWLSAASGLCDGVICYYGSRIRQYLHLAPLCPTLVIIARYEPAFDPLAMRQTLEKRPRVQCKMYDARHGFCDADSATFDAALSHQVMDDVSAFIRDI”: the protein production result is reported as “failed”. Turning to “MSSRWEGIDEFVAVAESGQFTAAAERLGVSSSHISRQIARLEDRLQTRLLYRSTRRVTLSEAGQTFLQHCQRLQDGREEALRAMGDLASEPKGLLRMTCAVAYGERFIVPLVTRFMALYPQLRVDVELSNHTLDLLHEGMDLAIRLGRLADSRLVATRLAPRRMYLCVSPAYLERYGRPHSLSELARHNCLVGSSDLWALQQDGREISQRVQGNWRCNSGQAVLDAALQGIGLCQLPDYYVLEHLNSGALVSLLEAHQPPNTAVWALYPQQRHLSPKVRRLVDYLKEGLAGLPEYRFG”, the protein production result is reported as “failed”. Next, “MMEVGILPVHVLYVFFIGAIILFMLLRKDTTFISLFGIFIISLWASHSLSASVSSLFHSFIYAAGELLPTIFIICFIVSMSDLLTKTGINEAMISPFASLVRGPVTAYWLIGGLMFAISLFFWPSPGVALIGAVLLPAAARAGLTPLAAAMAMNLFGHGFALSGDFVIQAAPKLTADAAGIPVGDVVSASIPLVLIMGVTTTTAAFIMIQRERKKQEHPTSFSPVLSGEQDNSLYLPKRLRSILAFLIPLAFLADIACMLLFNLQGNDATALIGGSAICILFTVHFFVYKHKGLEKITGYFIDGFKFGFKVFGPVIPIAAFFYLGDSGYESILGTSLPKGSHGIVNDLGIALSHMMPMSKELAATALTAAGAITGLDGSGFSGISLAGSIAKLFSSALHADPAILTALGQISAIWVGGGTLVPWALIPAAAICKVDPFELARKNFIPVAIGLLVTTLAAVMML”: “failed”; “MRQAKTDLAEQIFSATDRLMAREGLNQLSMLKLAKEANVAAGTIYLYFKNKDELLEQFAHRVFSMFMATLEKDFDETKPFFEQYRQMWKNIWYFLQENPTILSNLKQYESLPNFKDICKNIKNCRWDLFCHQAQKAGLLAELSEDILFLLSLKTAINLASDAKFIDFDLKPEILESVIERSWRAIQK”: “not failed”. Next, “MRLIVVGIAEDITEKKQLETELQRLATTDVLTQSSNRRHFFECANREFEQARLQGSSLAFLLLDIDDFKVINDTYGHPEGDIVLQRIAESGRAALRRGDLFGRIGGEEFAAVFPGCTADMARQVAERLQREIQRQNFSHQGQTFTITVSQGLTGLLAEDESLDNLFARADSAMYEAKRQGKNRIITGLEHHHHHH”: “failed”.

Consider “MLERIANIQKKLSKSIVERKINEVRKVAAVDVSYKEEKARAALVITTFPEGEVLKTKVIETTVSFPYIPTFFFLRETKPILIATKGETFDVLIVEGHGKAHPRGYGLASHIGVVLRKPTIGVAKRLLKNTPKDTYKKVGKVYVSVGNLITLEDATKIIRAILDESGYPKPLKLADKLSKGRIYEVKNTPSPNRSRKKRGNRGKDNNNSQGNLEHHHHHH”, for which the protein production entry is on record as “failed”.

For “MVADSFVYSFVSSPDLSVLVLLCVLLLTALRQVGSLRLQIWQVMTLGAFSVLLLGEISPQEALRAINIDVLLFLFGAFCVGEALNRSGYLAWIGGRIVSRAKNTDQLVLLVIFSTGLLSAVLMNDTLAIMGTPLVLRFSRKYGVSPKLMLFALAFGITTGSVMSPIGNPQNLLIAIDGNLDSPFVVFLSSLAVPTMINLVLVYAVLKLFFSREFGKPALIHTEELISDPELAEISKKALFLLLALITCKILLVEFLPAWDFSLSWIALFSASPILLSKRRTEVVKNIDWATLVFFVSMFVLMESVWISGTCQGLLYRMSPQLGSVPTILALSIGLSQLISNVPFVALYLPAMGSGVSQGQLMALAAGSTIAGNLLILGAASNVIILQNAEKEGETFSFMEFAKIGLLISFLNAIIYFIFL”, the protein production result was “failed”.

For “MKKFPELRKYTNPVWVRLVILCQKKLKVCFIMFIVMSISTSAEIYYEEAEEFLSKGDLVQACEKYYKAAEEAIKLLVIENNLKEIINEAEEHGWDSKTLNDAVTELSYKLGDNIIDMWASAVTLFTARKFMDKDLIENYKKDIKTLIEEAKQRFSIKVLKLEHHHHHH”, the protein production entry was “failed”. With “SLREMLGCCKVYISEARNKTALEAIERALKPFPPAAIVNKFEDAAYGRVGYTVVSSLANGSSSSLKNAVFAMVKTALDTINLELHCGSHPRLGVVDHICFHPLSQTSIEQVSSVANSLAMDIGSILRVPTYLYGAAEKEQCTLDSIRRKLGYFKANREGHEWAGGFDLEMVPLKPDAGPQEVSKAKGVVAVGACGWVSNYNVPVMSNDLKAVRRIARKTSERGGGLASVQTMALVHGEGVIEVACNLLNPSQVGGDEVQGLIERLGREEGLLVGKGYYTDYTPDQIVERYMDLLNNS” the entry was “failed”; with “MKILLFICGEGLGHTGRCLALGKEFLAAGHEVNFGAYGYSKGLVQKTGYSAYEIPSEIKLAGEAGTFDIRKSIKETLNNLSPSGFRKILRLIEKLDPDVVLSDGYYTGILAAQKRKVPVYFIGHQFNMEEFFWKKGLFAGIAGIFVKRFYNYVFSSVDGIIVPDYPLPYSVNRKNFTISRAVNDNIFFSGPLIRCRYQEAGEKAFKRPNVLSTIGAFGYRAAVFRNVLEAAKLDPSIYYTFISGPEIDPEQFSKVPENVEFTGFTENPFPYYKGSDLVITAGGHGTIMESLAFGLPILSFPDEKHAEQENNASVLEEAGYGKRMSYLTPPEVILACIREIFEDENYSKKTRRLMELAEVLDGPAAVRKFLEEKHRGLEHHHHHH”, “failed”. For the sequence “MADTGDTAGAKKNGDSTFTVLVAAFANLGIAVAKAVAGVISGSSAMLSEAAHSVADTVTEVLLLTSLKRSVRPADEDHPLGHGPERYIWALLAAVATFVGGAVFSLYDGIHTLTHGEDLGDPLVSYIVLAVAFVLEGYSLRTGLRQVRGEAAHHRVSFGRYLRRTPDTAVKAVVMEDSAALAGLLLAAGGLLGGQLTGSGVWDAVASLCIGALLLYVAWVLGRSNAEFLVGRPLSRSVRDRIRAELVADEHIEAVLELTTLVQGPREALVAAKVDFRDVSTAAQIEWACERAEQRLREEFPIVRRVYLDPTPGFAQRRTEGLNPWP”, the protein production result is “failed”.

On to “MSYLDTATDLPNQTLFLEYLNIALSNARRHHAQVGVLLCQINNWSDLKRKRGDAVANAFLQEAGQKLKSNLRNGDIVSRWDKDEFIFLVSKVQDTSSLLGIAQRLMKPVLAPVTAGGRPFQPEITYGVALYPVDGEQVNDLIGHIRENLQQLLPQPTLEHHHHHH”, for which the protein production result is “failed”.

For the sequence “MANSASPEQNQNHCSAINNSIPLMQGNLPTLTLSGKIRVTVTFFLFLLSATFNASFLLKLQKWTQKKEKGKKLSRMKLLLKHLTLANLLETLIVMPLDGMWNITVQWYAGELLCKVLSYLKLFSMYAPAFMMVVISLDRSLAITRPLALKSNSKVGQSMVGLAWILSSVFAGPQLYIFRMIHLADSSGQTKVFSQCVTHCSFSQWWHQAFYNFFTFSCLFIIPLFIMLICNAKIIFTLTRVLHQDPHELQLNQSKNNIPRARLKTLKMTVAFATSFTVCWTPYYVLGIWYWFDPEMLNRLSDPVNHFFFLFAFLNPCFDPLIYGYFSL”, the protein production result is “not failed”.

As for “MTKANWTLSDARDTYAIEHWSDGYFNIAPEGEVVVCPQRGSVEGGVSIAAIARGVRAEGLSLPVLMRFPHILHDRVRLLTSAFGKARAAYHYGAGYTPVYPIKVNQQRNVIENILRAGGVGLEAGSKSELLAILALAESGTIICNGYKDRAYIRLALIGSRLGLRVFIVVEKLSELELVVSESEALGIAPQLGVRIRLSSISAGKWQNSGGEKSKFGLHAGEILKFLKRLERAGGLGWVRLMHFHMGSQVANINDVKTALREASRYYAELRRLGAPVDHVDVGGGLGIDYEGTHSVSDCSINYSVDEYAHSIVRAFSELCAEQGLPQPDLITEAGRAMSAHHAVLVTNVVDIEAATYDASPVSASVAQPLKDLEDLLRRVDSESVLGIYHDAEFDLAETRTMYVQGKIGLDQLAEAERLHATLCREVQQRLDIRLRAHRAVLDELNERLADKLFCNFSVFQSIPDAWAIDQIFPVMPLQRLGEEPTRRAVIQDMTCDSDGRINAYIDRQSIENTLRMHAPAPGEPYLIGFFLVGAYQEILGDMHNLFGDTHSVDVELDGAGGYTFTHTRRGDGADDLLRYVHIDPDELERSYRKKLIEADIPMHQRKQYESELIAGLSNYTYLEELEHHHHHH”, the protein production result is given as “not failed”.
